Measured values taken from patent US20100261660A1 (published 2010).
Positions count from the first letter of the chain named.

B1: Baboon B7-1 (ligand)
chain: VIHVTKEVKEVATLSCGHNVSVEELAQTRIYWQKEKKMVLTMMSGDMNIWPEYKNRTIFDITNNLSIVILALRPSDEGTYECVVLKYEKDAFKREHLAEVMLSVKADFPTPSITDFEIPPSNIRRIICSTSGGFPEPHLFWLENGEELNAINTTVSQDPGTELYTVSSKLDFNMTTNHSFVCLIKYGHLRVNQTFNWNTPKQEHFPDNLLPSWAITLISVNGIFVICCLTYCFAPRCRERRRNETLRRESVRPV
B2: Orangutan B7-1 (ligand)
chain: VIHVTKEVKEVATLSCGHNVSVEELAQTRIYWQKEKKMVLTMMSGDMNIWPEYKNRTIFDITNNLSIVILALRPSDEGTYECVVLKYEKDAFKREHLAEVTLSVKADFPTPSISDFEIPTSNIRRMICSTSGGFPEPHLSWLENGEELNAISTTVSQDPETELYAVSSKLDFNMTTNHSFMCLIKYGHLRVNQTFNWNTPKQEHFPDNLLPSWAITLISVNGIFVICCLTYCFAPRCRERRSNERLRRESVRPV
B3: Round 2 CD28H11-3 (ligand)
chain: ITPKSVTKRVKETVMLSCDYNTSTEELTSLRIYWQKDSKMVLAILPGKVQVWPEYKNRTITDMNDNPRIVILALRLSDSGTYTCVIQKPVLKGAYKLEHLASVRLMIRADFPVPTINDLGNPSPNIRRLICSTSGGFPRPHLYWLENGEELNATNTTLSQDPETKLYMISSELDFNVTNNHSIVCLIKYGELSVSQIFPWSKPKQEPPIDQLPFWVIIPVSGALVLTAAVLYCLACRHVARWKRTRRNEETVGTERLSPIYLGSAQSSG
B4: Round 2 CD28BP-14 (ligand)
chain: GISQVTKSVKEMAALSCDYNISIDELARMRIYWQKDQQMVLSIISGQVEVWPEYKNRTITDMNDNPRIVILALRLSDSGTYTCVIQKPVLKGAYKLEHLASVRLMIRADFPVPTINDLGNPSPNIRRLICSTSGGFPRPHLYWLENGEELNATNTTVSQDPGTELYMISSELDFNVTNNHSIVCLIKYGELSVSQIFPWSKPKQEPPIDQLPFWVIIPVSGALVLTAVVLYCLACRHVARWKRTRRNEETVGTERLSPIYLGSAQSSG
B5: Round 2 CD28B4-3 (ligand)
chain: ITPKSVTKRVKETVMLSCDYNTSTEELTSLRIYWQKDSKMVLAILPGKVQVWPEYKNRTITDMNDNPRIVILALRLSDSGTYTCVIQKPVLKGAYKLEHLTSVRLMIRADFPVPTINDLGNPSPNIRRLICSTSGGFPRPHLYWLENGEELNATNTTLSQDPETKLYMISSELDFNMTSNHSFLCLVKYGDLTVSQTFYWQESKPTPSANQHLTWTIIIPVSAFGISVIIAVILTCLTCRNAAIRRQRRENEVEMQSCSQSP
B6: Round 2 CD28B6-3 (ligand)
chain: B5 chain with V90D, E254K
B7: Round 2 CD28D5-6 (ligand)
chain: B5 chain with N21S, T197S
B8: Round 2 CD28E2-5* (ligand)
chain: B5 chain with I1T, L76P, T101A
B9: Round 2 CD28E8-6 (ligand)
chain: B5 chain with L158V, M177T
B10: Round 2 CD28F3-1 (ligand)
chain: B5 chain with V90D, E149K
B11: Round 2 CD28B6-6 (ligand)
chain: ITPKSVTKRVKETVMLSCDYSTSTEELTSLRIYWQKDSKMVLAILPGKVQVWPEYKNRTITDMNDNPRIVILALRLSDKGTYTCVIQKPVLKGAYKLEHLTSVTLSIRADFPVPSITDIGHPAPNVKRIRCSASGGFPEPRLAWMEDGEELNAVNTTVDQDLDTELYSVSSELDFNATNNHSIVCLIKYGELSVSQIFPWSKPKQEPPIDQLPFWVIVPVSGALVLTAVVLYCLACRHVAR
B12: Round 2 CD28C7-3 (ligand)
chain: ITPKSVTKRVKETVMLSCDYSTSTEELTSLRIYWQKDSKMVLAILPGKVQVWPEYKNRTITDMNDNPRIVILALRLSDSGTYTCVIQKPDLKGAYKLEHLTSVRLMIRADFPVPSITDIGHPAPNVKRIRCSASGDFPEPRLAWMEDGEELNAVNTTVDQDLDTELYSVSSELDFNVTNNHSIVCLIKYGELSVSQIFPWSKPKQEPPIDQLPFWVIIPVSGALVLTAVVLYCLACRHVARWKRTRRNEETVGTERLSPIYLGSAQSSG
B13: Round 2 CD28C2-4 (ligand)
chain: GISQVTKSVKEMAALSCDYNISIDELARMRIYWQKDQQMVLSIISGQVEVWPEYKNRTITDMNDNPRIVILALRLSDSGTYTCVIQKPVLKGAYKPEHLASVRLMIRADFPVPTINDLGNPSPNIRRLICSTSGGFPRPHLYWLENGEELNATNTTLSQDPETKLYMISSELDFNMTSNHSFLCLVKYGDLTVSQTFYWQESKPTPSANQHLTWTIIIPVSAFGISVIIAVILTCLTCRNAAIRRQRRENEVEMQSCSQSP
B14: Round 2 CD28D2-3 (ligand)
chain: ITPKSVTKRVKETVMLSCDYNTSTEELTSLRIYWQKDSKMVLAILPGKVQVWPEYKNRTITDMNDNPRIVIQALRLSDSGTYTCVIQKPVLKGAYKLEHLASVRLMIRADFPVPTDLGNPSPNIRRLICSTSGGFPRPHLYWLENGEELNATNTTVSQDPGTELYMISSELDFNVTNNHSIVCLIKYGELSVSQIFPWSKPKQEPPIDQLPFWVIIPVSGALVLTAVVLYCLACRHVARWKRTRRNEETVGTERLSPIYLGSAQSSG
B15: Round 2 CD28D11-1 (ligand)
chain: ITPKSVTKRVKETVMLSCDYNTSTEELTSLRIYWQKDSKMVLAILPGKVQVWPEYKNRTITDMNDNPRIVILALRLSDSGTYTCVVQKNENGSFRREHLTSVTLSIRADFPVPSITDIGHPAPNVKRIRCSASGDFPEPRLAWMEDGEELNAVNTTVDQDLDTELYSVSSELDFNVTNNHSIVCLIKYGELSVSQIFPWSKPKQEPPIDQLPFWVIILVSGALVLTAVVLYCLACRHVARWKRTRRNEETVGTERLSPIYLGSAQSSG
B16: Round 2 CD28D12-5 (ligand)
chain: ITPKSVTKRVKETVMLSCDYSTSTEELTSLRIYWQKDSKMVLAILPGKVQVWPEYKNRTITDMNDNPRIVILALRLSDSGTYTCVIQKPVLKGAYKLEHLASVRLMIRADFPVPSITDIGHPAPNVKRIRCSASGDFPEPRLAWMEDGEELNAVNTTVLDTELYSVSSELDFNVTNNHSIVCLIKYGELSVSQIFPWSKPKQEPPIDQLPFWVIIPVSGALVLTAVVLYCLACRHVARWKRTRRNEETVGTERLSPIYLGSAQPSG
B17: Round 2 CD28F10-2 (ligand)
chain: B12 chain with S21N
B18: Round 2 CD28F12-5* (ligand)
chain: B12 chain with S21N, T101A
B19: Round 2 CD28G1-9 (ligand)
chain: B12 chain with S21N, D90V, D136G
B20: Round 2 CD28H6-6 (ligand)
chain: ITPKSVTKRVKETVMLSCDYSTSTEELTSLRIYWQKDSKMVLAILPGKVQVWPEYKNRTITDMNDNPRIVILALRLSDSGTYTCVIQKPVLKGAYKLEHLASVRLMIRADFPVPTINDLGNPSPNIRRLICSGFPRPHLYWLENGEELNATNTTVSQDPGTELYMISSELDFNVTNNHSIVCLIKYGELSVSQIFPWSKPKQEPPIDQLPFWVIIPVSGALVLTAVVLYCLACRHVARWKRTRRNEETVGTERLSPIYLGSAQSSG
B21: Round 2 CD28A2-5 (ligand)
chain: ITPKSVTKRVKETVMLSCDYNTSTEELTSLRIYWQKDSKMVLAILPGKVQVWPEYKNRTITDMNDNPRIVILALRLSDSGTYTCVIQKPDLKGAYKLEHLASVRLMIRADFPVPSITDIGHPAPNVKRIRCSASGGFPEPRLAWMEDGEELNAVNTTVDQDLDTELYSVSSELDFNMTSNHSFLCLVKYGDLTVSQTFYWQESKPTPSANQHLTWTIIIPVSAFGISVIIAVILTCLTCRNAAIRRQRRENEGKCKVLSVSIGTKLKFNR
B22: Round 2 CD28B4-5* (ligand)
chain: SGITPKSVTKRVKETVMLSCDYNTSTEELTSLRIYWQKDSKMVLAILPGKVQVWPEYKNRTITDMNDNPRIVILALRLSDKGTYTCVVQKPDLKGAYKLEHLASVRLMIRADFPVPSITDIGHPAPNVKRIRCSASGGFPEPRLAWMEDGEELNAVNTTVDQDLDTELYSVSSELDFNVTNNHSIVCLIKYGELSVSQIFPWSKPKQEPPIDQLPFWVIIPVSGALVLTAVVLYCLACRHVARWKRTRRNEETVGTERLSPIYLGSAQSSG
B23: Round 2 CD28F11-8 (ligand)
chain: ITPKSVTKRVKETVMLSCDYNTSTEELTSLRIYWQKDSKMVLAILPGKVQVWPEYKNRTITDMNDNPRIVILALRLSDSGTYTCVIQKPVLKGAYKLEHLTSVRLMIRADFPVPTINDLGNPSPNIRRLICSTSGGFPRPHLYWLENGEELNATNTTLSQDPETKLYMISSELDFNMTSNLCLVKYGDLTVSQTFYWQESKPTPSANQHLTWTIIIPVSAFGISVIIAVILTCLTCRNAAIRRQRRENEVEMQSCSQSP

The binders below were run against T1, Soluble CD28-Ig (extracellular domain of human CD28 fused to the Fc portion of human IgG1) (human, UniProt P10747 19-152, biotin-conjugated (NHS-biotin) in the FACS binding assays) (assay: binding assay, data not shown).
T1 construct: extracellular domain; bought from R&D Systems; also called sCD28-Ig; CD28-Ig Fc; not shown: Fc portion of human IgG1
B1: binds.
B2: binds.

The binders below were run against T2, Soluble CTLA-4-Ig (extracellular domain of human CTLA-4 fused to the Fc portion of human IgG1) (human, UniProt P16410 36-161, FITC-conjugated in the FACS binding assays) (assay: binding assay, data not shown).
T2 construct: extracellular domain; bought from R&D Systems; also called sCTLA-4-Ig; CTLA-4-Ig Fc; not shown: Fc portion of human IgG1
T2 sequence (P16410 36-161): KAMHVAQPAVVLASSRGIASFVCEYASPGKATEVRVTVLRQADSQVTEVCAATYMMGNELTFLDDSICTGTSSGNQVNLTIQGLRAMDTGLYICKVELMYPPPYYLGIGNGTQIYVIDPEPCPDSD
B1: binds.
B2: binds.

What follows are binders tested against T1, Soluble CD28-Ig (extracellular domain …) (assay: competitive FACS on transfected cells, biotin-sCD28-Ig with FITC-sCTLA-4-Ig; grade 0-2 of CD28/CTLA-4 ratio vs WT hB7-1).
With B3 the “Binding Score” value was 1.
For B4, the “Binding Score” value was 2.
In the case of B5, the “Binding Score” value is reported as 1.
In the case of B6, the “Binding Score” value is reported as 1.
In the case of B7, the “Binding Score” value is reported as 0.
B8 was tested, and the “Binding Score” value was 0.
With B9 the “Binding Score” value was 0.
In the case of B10, the “Binding Score” value is reported as 0.
B11 was tested, and the “Binding Score” value was 1.
B12 was tested, and the “Binding Score” value was 1.
For B13, the “Binding Score” value was 1.
B14 was tested, and the “Binding Score” value was 1.
For B15, the “Binding Score” value was 2.
B16 was tested, and the “Binding Score” value was 2.
B17 was tested, and the “Binding Score” value was 1.
In the case of B18, the “Binding Score” value is reported as 1.
In the case of B19, the “Binding Score” value is reported as 1.
For B20, the “Binding Score” value was 1.
For B21, the “Binding Score” value was 0.
B22 was tested, and the “Binding Score” value was 0.
B23 was tested, and the “Binding Score” value was 0.
